Measured values published in PMC11367332, “Neutralizing IL-38 activates γδ T cell-dependent antitumor immunity and sensitizes for chemotherapy” (Journal for Immunotherapy of Cancer, 2024).

What was measured:
PyMT tumors [1] = test: Therapeutic model of chemoresistance in PyMT mice (doxorubicin with or without anti-IL-38); format: in vivo, mouse
Description: The C57BL/6N IL-38 knockout (KO) strain was previously described.[10] For the polyoma virus middle T oncoprotein (PyMT) model, IL-38 KO mice were crossed with the PyMT mammary carcinoma strain, previously bred into a C57BL/6 background.[19] Only female PyMT mice were used. Tumor development in PyMT wildtype (WT) versus IL-38 KO mice was monitored once a week for up to 8 weeks, starting at 12 weeks using electronic calipers. For IL-38 neutralization, PyMT WT mice were intraperitoneally (i.p.) injected with 100 µg of either anti-IL-38 antibody (e04, in-house generated) or IgG1 (Human IgG1, Bio X Cell) isotype control. […] The treatment started at week 13 and tumor growth was monitored once a week. Group sizes were determined based on prior experience with the model. […]
(§1) For preparing single-cell suspensions, PyMT tumors were processed with the Tumor Dissociation Kit (Miltenyi Biotec) and gentleMACS Dissociator (Miltenyi Biotec) according to standard protocols. […] Samples were acquired with an FACSymphony A5 or FACSymphony S6 flow cytometer (BD Bioscience) and the data was analyzed in FlowJo software V.10 (Tree Star). […] For the gating strategy, fluorescence minus one controls were applied. […]

CD8+ T cells = test: CD8+ T-cell proliferation assay (co-culture with cDC1); format: cell-based, mouse; settings: 5 µM added daily
Method: CD8+ T cells from murine spleen and cDC1 from PyMT tumors treated in vivo with anti-IL-38 antibodies were isolated by FACS-sorting. CD8+ T cells and cDC1 were co-cultured at a ratio of 1:40 in the T-cell medium. Cells were pre-incubated with either 100 nM anti-IL-38 or 100 nM IgG isotype control, activated with mouse T-cell activator CD3/CD28 Dynabeads (Thermo Fisher Scientific) and supplemented with 10 ng/mL rm IL-2 (PrepoTech) at days 0, 2 and 5 and 50 μM β-mercaptoethanol daily. For the Notch signaling blockade, 5 µM γ-secretase inhibitor DAPT (Abcam) was added daily. For CD8+ T cell culture, 100 ng/mL rm IL-38 (AdipoGen) was added daily. Supernatants were collected for cytokine determination at days 3, 5 and 7 and cell proliferation was analyzed by flow cytometry.
To measure the cytokines in PyMT tumors and cell culture supernatants, Cytometric Bead Array Flex Sets (BD Biosciences) were used for murine IL-17A and IFN-γ. The samples were acquired via FACS and analyzed with FlowJo Software V.10 (Tree Star).

[2] = target: T1, mIL-38-Avi (murine IL-38 with Avi tag) (Mus musculus, UniProt Q8R459); test: BLI; Octet RED96; mIL-38-Avi immobilised on streptavidin biosensors at 2 µg/mL; Fab from 250 to 7.8 nM in 1:1 dilution steps; 150 mM NaCl, 50 mM Tris-HCl pH 7.5, 0.1% BSA, 0.02% Tween 20; 1:1 analyte model with global fit; settings: both partners purified
T1 construct: interleukin-38 (IL-38, IL-1 family member 10), mouse; PDB 8Q3J holds mIL-38 and may show the limits of the construct; also called mouse IL-38

PyMT tumors [3] = test: IL-38 neutralization in PyMT mammary carcinoma model; format: in vivo, mouse
Description: The C57BL/6N IL-38 knockout (KO) strain was previously described.[10] For the polyoma virus middle T oncoprotein (PyMT) model, IL-38 KO mice were crossed with the PyMT mammary carcinoma strain, previously bred into a C57BL/6 background.[19] Only female PyMT mice were used. Tumor development in PyMT wildtype (WT) versus IL-38 KO mice was monitored once a week for up to 8 weeks, starting at 12 weeks using electronic calipers. For IL-38 neutralization, PyMT WT mice were intraperitoneally (i.p.) injected with 100 µg of either anti-IL-38 antibody (e04, in-house generated) or IgG1 (Human IgG1, Bio X Cell) isotype control. For CD8+ T cell depletion, PyMT WT mice were injected with 100 µg of anti-IL-38 antibody (e04) in combination with either 250 µg of anti-CD8 antibody (anti-mouse CD8α, Bio X Cell) or IgG2b (rat IgG2b, Bio X Cell) isotype control. In both experiments, the treatment started once the first tumor reached a size of 0.6 cm in diameter. The antibodies were injected once a week for 5 weeks. In the therapeutic model of chemoresistance, PyMT WT mice were i.p. injected with 5 mg/kg of doxorubicin (Teva Pharma) in combination with either IgG1 isotype control or anti-IL-38 antibody. The mice were treated with five once-weekly cycles of chemotherapy once the first tumor reached a size of 1.0 cm in diameter. For γδ T-cell receptor (TCR) neutralization, mice were separated into four groups, in which PyMT WT and IL-38 KO mice were treated with either anti-γδ TCR antibody (UC7-13D5, Bio X Cell) or IgG (polyclonal Armenian hamster, Bio X Cell) isotype control once a week for 5 weeks. Mice were i.p. injected once with 500 µg of antibodies, followed by 4 weekly injections of 200 µg.[20] The treatment started at week 13 and tumor growth was monitored once a week. Group sizes were determined based on prior experience with the model. No exclusion criteria were defined and no animals were excluded. Due to the nature of the model (treatment start for every single animal depends on individual parameters), simple randomization (no confounder minimization) was done and the experimenters were not blinded. Data analysis was done in a blinded manner. Animals were housed in groups at the Zentrale Forschungseinrichtung (animal testing facility), Faculty of Medicine, Goethe University Frankfurt. […]
as §1

[4] = target: T1, mIL-38-Avi (murine IL-38 with Avi tag); test: BLI; Octet RED96; mIL-38-Avi immobilised on streptavidin biosensors at 2 µg/mL; IgG from 250 to 7.8 nM in 1:1 dilution steps; 150 mM NaCl, 50 mM Tris-HCl pH 7.5, 0.1% BSA, 0.02% Tween 20; 1:2 bivalent model; settings: both partners purified

COc1cccc2c1C(=O)c1c(O)c3c(c(O)c1C2=O)C[C@@](O)(C(=O)CO)C[C@@H]3O[C@H]1C[C@H](N)[C@H](O)[C@H](C)O1 [doxorubicin]
IL-38 expression in the tumor (PyMT tumors [1]; Il1f10 mRNA by quantitative PCR, PyMT WT mice): increased IL-38 expression in the tumor
Tumor progression (PyMT tumors [1]; late-stage setting, start at tumor size 1 cm, doxorubicin 5 mg/kg i.p., five once-weekly cycles, antibody 100 µg/mouse): did not

C[C@H](NC(=O)Cc1cc(F)cc(F)c1)C(=O)N[C@H](C(=O)OC(C)(C)C)c1ccccc1 [DAPT]
cDC1-induced IFN-γ production by CD8+ T cells (CD8+ T cells; cytometric bead array days 3, 5 and 7): strongly inhibited
cDC1-induced proliferation of CD8+ T cells (CD8+ T cells; flow cytometry at day 7): strongly inhibited

B1: Fab e04 (Fab, V domains shown)
VH: EVQLVESGGGLVQPGGSLRLSCAASGFSFSSSSIHWVRQAPGKGLEWVASISPYYSYTSYADSVKGRFTISADTSKNTAYLQMNSLRAEDTAVYYCARTVRGSKKPYFSGWAMDYWGQGTLVTVSS
VL: DIQMTQSPSSLSASVGDRVTITCRASQSYYSYVAWYQQKPGKAPKLLIYSASSLYSGVPSRFSGSRSGTDFTLTISSLQPEDFATYYCQQVFAPITFGQGTKVEIK
notes: heavy chain (Fd) of Fab e04 from a synthetic Fab-phage library; light chain of Fab e04 from a synthetic Fab-phage library; Selected by phage display against murine IL-38; the library is described in the online supplemental methods; also called anti-IL-38 Fab fragment; source: E. coli BL21, purified (HiTrap Protein G)
Kd [2]: 6.7 nM

B2: IgG e04: Fab e04 converted into full-length IgG1 format; in-house generated IL-38 neutralizing antibody (antibody, V domains shown)
VH: EVQLVESGGGLVQPGGSLRLSCAASGFSFSSSSIHWVRQAPGKGLEWVASISPYYSYTSYADSVKGRFTISADTSKNTAYLQMNSLRAEDTAVYYCARTVRGSKKPYFSGWAMDYWGQGTLVTVSS
VL: DIQMTQSPSSLSASVGDRVTITCRASQSYYSYVAWYQQKPGKAPKLLIYSASSLYSGVPSRFSGSRSGTDFTLTISSLQPEDFATYYCQQVFAPITFGQGTKVEIK
Expression of the PD-1/PD-L1 immune checkpoint in tumors (PyMT tumors [3]; CD8+ T cells, macrophages, tumor cells, flow cytometry): did not observe an impact
Tumor development (PyMT tumors [3]; PyMT WT mice, 100 µg i.p. once a week for 5 weeks, start at first tumor 0.6 cm, vs IgG1 isotype): marked delay in tumor development
Abundance of CD8+ T cells and γδ T cells in tumors (PyMT tumors [3]; flow cytometry after 5 weeks of treatment, vs IgG1 isotype): increased abundance of CD8+ T cells and γδ T cells in the tumors
Cytokine-producing γδ T cells in tumors (PyMT tumors [3]; intracellular cytokine staining, flow cytometry, after 5 weeks of treatment): IFN-γ rather than IL-17-producing γδ T cells were increased

B3: e04 IgG (Fab e04 converted into full-length IgG1) (antibody, V domains shown)
VH: EVQLVESGGGLVQPGGSLRLSCAASGFSFSSSSIHWVRQAPGKGLEWVASISPYYSYTSYADSVKGRFTISADTSKNTAYLQMNSLRAEDTAVYYCARTVRGSKKPYFSGWAMDYWGQGTLVTVSS
VL: DIQMTQSPSSLSASVGDRVTITCRASQSYYSYVAWYQQKPGKAPKLLIYSASSLYSGVPSRFSGSRSGTDFTLTISSLQPEDFATYYCQQVFAPITFGQGTKVEIK
notes: variable part as the heavy chain of m2 (PDB 8Q3J), converted into full-length IgG1 format; as the light chain of m2 (PDB 8Q3J); IgG1; also called IgG e04; anti-IL-38 antibody (e04); source: Expi293F, transfected, purified from supernatant (HiTrap Protein G)
Kd [4]: 0.68 nM
